Test results from doi:10.1101/2023.06.15.545135, “Structure of mechanically activated ion channel OSCA2.3 reveals mobile elements in the transmembrane domain” (bioRxiv, 2023).
One block for each molecule: values may come before it.

Tests used:
[1] = target: Arabidopsis thaliana OSCA1.2 (Arabidopsis thaliana) (UniProt Q5XEZ5); experiment: cryo-EM structure; OSCA1.2 reconstituted in peptidiscs, ~8 mg/mL; 2.8 Å map, C2 symmetry imposed
[2] = target: the molecule itself; experiment: as above
[3] = target: the molecule itself; experiment: cryo-EM structure; OSCA2.3 reconstituted in peptidiscs, ~3.6 mg/mL, TBS with 2 mM DTT; 2.7 Å map, C2 symmetry imposed

stoichiometry N [1]: 4 per protomer
Molecule: NSPr peptide (peptidisc peptide)

B1: Arabidopsis thaliana OSCA1.2 (natural protein)
chain: MATLQDIGVSAGINILSAFVFFIIFAVLRLQPFNDRVYFSKWYLKGLRSSPARGGAFAQRFVNLDFRSYMKFLNWMPEALKMPEPELIDHAGLDSVVYLRIYWLGLKIFTPIAVLAWAVLVPVNWTNNTLEMAKQLRNVTSSDIDKLSVSNIPEYSMRFWTHIVMAYAFTIWTCYVLMKEYETIANMRLQFVASEARRPDQFTVLVRNVPPDADESVSELVEHFFLVNHPDHYLTHQVVCNANKLADLVKKKKKLQNWLDYYQLKYARNNSQRIMVKLGFLGLWGQKVDAIEHYIAEIDKISKEISKEREEVVNDPKAIMPAAFVSFKTRWAAAVCAQTQQTRNPTQWLTEWAPEPRDVFWSNLAIPYVSLTVRRLIMHVAFFFLTFFFIVPIAFVQSLATIEGIVKAAPFLKFIVDDKFMKSVIQGFLPGIALKLFLAFLPSILMIMSKFEGFTSISSLERRAAFRYYIFNLVNVFLASVIAGAAFEQLNSFLNQSANQIPKTIGVAIPMKATFFITYIMVDGWAGVAGEILMLKPLIMFHLKNAFLVKTDKDREEAMDPGSIGFNTGEPRIQLYFLLGLVYAPVTPMLLPFILVFFALAYIVYRHQIINVYNQEYESAAAFWPDVHGRVIAALVISQLLLMGLLGTKHAALAAPFLIALPVLTIGFHHFCKGRYEPAFIRYPLQEAMMKDTLETAREPNLNLKGYLQNAYVHPVFKGDEDDYDIDDKLGKFEDEAIIVPTKRQSRRNTPAPSIISGDDSPSLPFSGKLV
notes: OSCA1.2 of Arabidopsis thaliana, UniProt Q5XEZ5; Final model holds residues 2-50, 71-121, 157-266, 290-487, 505-648, 654-718; also called AtOSCA1.2
binding result [2]: binds

B2: Arabidopsis thaliana OSCA2.3 (natural protein, UniProt Q8GUH7 1-703, looked up)
chain: MLLSALLTSVGINLGLCFLFFTLYSILRKQPSNVTVYGPRLVKKDGKSQQSNEFNLERLLPTAGWVKRALEPTNDEILSNLGLDALVFIRVFVFSIRVFSFASVVGIFILLPVNYMGTEFEEFFDLPKKSMDNFSISNVNDGSNKLWIHFCAIYIFTAVVCSLLYYEHKYILTKRIAHLYSSKPQPQEFTVLVSGVPLVSGNSISETVENFFREYHSSSYLSHIVVHRTDKLKVLMNDAEKLYKKLTRVKSGSISRQKSRWGGFLGMFGNNVDVVDHYQKKLDKLEDDMRLKQSLLAGEEVPAAFVSFRTRHGAAIATNIQQGIDPTQWLTEAAPEPEDVHWPFFTASFVRRWISNVVVLVAFVALLILYIVPVVLVQGLANLHQLETWFPFLKGILNMKIVSQVITGYLPSLIFQLFLLIVPPIMLLLSSMQGFISHSQIEKSACIKLLIFTVWNSFFANVLSGSALYRVNVFLEPKTIPRVLAAAVPAQASFFVSYVVTSGWTGLSSEILRLVPLLWSFITKLFGKEDDKEFEVPSTPFCQEIPRILFFGLLGITYFFLSPLILPFLLVYYCLGYIIYRNQLLNVYAAKYETGGKFWPIVHSYTIFSLVLMHIIAVGLFGLKELPVASSLTIPLPVLTVLFSIYCQRRFLPNFKSYPTQCLVNKDKADEREQNMSEFYSELVVAYRDPALSASQDSRDISP
notes: OSCA2.3 of Arabidopsis thaliana, UniProt Q8GUH7, full-length, human codon optimized cDNA; 703 residues as printed; C-terminal PreScission Protease site with 4-5 residue linkers before the tags; After PreScission cleavage, remnants of the linker and of the cleavage site stay at the C-terminus; Final model holds residues 3-26, 65-115, 129-225, 302-368, 410-517 and 536-691; also called AtOSCA2.3; …
stoichiometry N [3]: 2
